In the NTF2 design screens of Basanta et al. (2020):

Assay: protease stability score; higher = more stable; yeast display proteolysis, trypsin and chymotrypsin;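 further: relative to predicted unfolded state with 0 unfolded-like and 1 meaning tenfold more protease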

Row | Sequence | protease stability score
1 | SREEEDAKLALDLLIEALKTGDEHEIKELLDPTTRMEVGDKELVGRENISKHVSDMVHRIDHIEVRLHDMTIINGVVHLDTRLILHFNGRTHTQETRVIVWKFNGRWIITHIHVK | 1.28
2 | SREEEEATHAVNRWMQLFITGDEESLRELADPDDRINIDGKDFHGREEFEMFMRLFVERFKNLRVELEDTRITVQGDKITVRFKIHFNINGVQTKTEVIIFSTKVNGRWHFKSEEVRHR | 0.415
3 | SREEEIAHDVFREWIESFRTGDEDHRTEMMDPNARVFVNGVEFVGRDEIVRFFRHLRFDNSRHEIKSVRVVDGVAHIDSHLELHGTVNGQRDRVSYKLNVHTSKIDGKWVITEVKVK | 2.03
4 | SREEEIMRRFLELLILAFRTGDEDTYLKMLDPRVRLEINGRDLHGRETVREHYKDERDELGVSQFHIWVRDLRVQGDKIETEGHLEFDGRWLDIHFHAHFVDGRLKSFRIEIR | 1.32
5 | SREEELAKKLLEIYSRSVETGDWKKLFELMDPNTRVEQGEWHFHGREEFHKLVHKFLERADVVHVEIDRIKVIGDFVHIDVVLHIHQGEFHHVVRTRLDYLKFNGRWVLQTIRIE | 1.6
6 | SREEKEIKEIWELLVRSWLTGDEETLTHLLDPNARSVINGREYHGRETIAHELTRHLYELRIKDIELHHVDIIGDKVKIDSRVEYHFNGRETELKVEIVALKINGRWRLKDNIIK | 1.47
7 | SREHKEAEDALRQWLETLRTGDERTMHELFDPNVRLHINGKEIHGREKVLTQLEHELKRFKNVRYELESIDITEHHVRVFGTSHVNGVEEKLEIVILKWDGRWRVQELYVHRV | 1.67
8 | SRESEEAKDDWEKIINDLRTGDFRSLRELFDPNVRLETENHEFHGWETAEHMVKRFDHIHVRREHFDHIEIQGEKVILDGTMRMEFIINGVVYEKEQRVIIIFLKYNGRWLIKEVEFI | 0.759
9 | SRIEKLIEHLVHLWLEIWRTGDEHSFTRLLDPHVRLRIGDKHFIGREDVVKFLRDHEKEWREDDVEIRDIRTQGDFLEVEITITGRFNGRDITREFRITMIVVDGRVKEIRISYE | 2.05
10 | SRKDEHTHHLLHLFWEIFMTGDEERWTQLLDPNMRTEIDGKDLHGREDAIRFMIERLRQLGFDHMRLHHLENQGEKAHIDGTLEVGDKLVRVHFSTKIVNGRIKELTIKFH | 1.02
11 | SSDKRDAHFAMDLYYEIHLTGDEDRWRHMADPNVRLHVGEKDFHGRELWFKFMHDFGLDKIEIELKDIEVQGEKVHLDGIIRFDGREHKVEVDLRKINGRWIIDEERYK | 1.13
12 | SSEEEDIEWATEVLVMSFITGDWKLSHKLMDPNVLSIVNGREFHGRELAVKHLHEMTEKIKGLRIETHDLKHINIFNGRARVHSIVRGDINGRKVDSMIDVITNKFDGRWVIESVQFI | 1.45
13 | SSEEHDAKNMHKMFREAMMTGDEDLLKNLLDPHVRLTFNGKDFHGWDRVYELFRKRLEHLGITWKDWDLHIIETQGDKVELNSTLHGRVGDKHVDDHTTLFIRKIDGQWVLTEVRIG | 1.46
14 | SSEEKRDKDAVELFLKILHTGNFELFRELFDPNTRWEYGDKELIGMELIVTWWFEFVRDRGVEVELHRIDRINGRVVLETTMRIGDKQTSTHVHVIVINGVFHEVRFRFH | 1.29
15 | SSHEEYMIRLVLQIIRLYLTGDEETIRKMADPNTYMKITIGDKDIEAHGREDVIRVREEIRKQIRIHHVDVTSIKVIDGRLVIHGILDGEYDGKRDEVDVRIEIIIVNGKWTSEHARVH | 1.05
16 | SSQEKFLKELVEIWVELWRTGNEEAFKRLADPDAKNDVNGVYSHGMENVEKLLKHFGIKHVEINDVKVQGDKVIMDGIIEFNGVTIKEHVEIVIVNGRFKELRIRRE | 0.788
17 | STEEEEAKKFSDIVLKAFDTGDEDLYRDLADPDTRSIINGVEKHGWKDIARHIKRIDHSDTHWDRVEMRVVNGQARVHVKGHIDVTIDGQRFVLRVTWHIIVTKIDGRWHLEELSLEVS | 1.31
18 | STEEEELRDYLEILDHLWKTGDFDRLLNLIDPHVRLEVNGREHHGMRWFETIIRKLGHDNISVHINNEKVHIVDGRAHWEGKKILIYDGRFHDFHTHLFFLKIDGKWKLKEVEYH | 1.26

Row | Sequence | protease stability score
19 | STEEREVYEWVHELLNAFNTGDEDFYYERMDPHVRFESQFNGKELDIVGREKVLKWTKTFWDDLGVDHSKLRSFRIQGDKLILHMEVTINGRHIQVDFFHVIVDGKLHSEEIRIH | 0.649
20 | STLEEHVFRMAYEIITDLETGDEEYYKKRADPDMYVHIRIGDKEVEIHGREHFIQWVKRLFEEIRIHWRIRDMHIVDGVYRFHTELEIRIGDKEHRIKSEVKVVVVNGKIKQLEIRIK | 2
21 | STREEETRRISDMIVKSLMTGDWRTFHDLLDPNVKVEINGKEMHGWKAWEDYIREMGIKVFDYHRIEVDENHLLMDGIDKVDGREHRSHYEITIIDGRIRRVEIRHK | 1.1
22 | SYHEKEALDLYRMTIHNYLTGDWKEWHRLFDPHVRIRIGDKELHGMENFAKWEEDLEKDLGVDHVEIRLRDMEVQGDKFTSDGELRLHIDGRTIRHKVEFHLEVINGRIKSHRINIH | 1.04
23 | TDDEEIWKIAIKMLRSAMHTGDEDTIKHLLDPNVRIEINGREIIGREIYAKHLREIRVDVERWEDHHIEVQGEFMHVKGRVVLTEEINGQEVREDVKLHVLVLKIDGQWRITSLYFR | 0.754
24 | TDDEREAVRFSEEVMHSFITGDEEHLDRLMDPNTKLTVNGKEIHGRQDVLEFIKRYRRELGVKYSEFVVHSVDDFDGRLRNNTELNINVDGKHIRLDTRVDMIKFNGRWQLHSIRFD | 1.44
25 | TDEDEAAELIIRLLEELHHTGDEDKLRDLMDPHVRMDIDGKDFHGRETYLEHLHHRLVNWGVDRIKVEIRLKHSEIQGEKLILETDWIVIFDGVRYEMKVRLILIKVNGRWVLKSSHFK | 1.32
26 | TDEDRELHEAAELLIESTWTGDFDFLLELLDPNVRLVINGKHDHGREDIWEVLRRLLERLGLDRVRVKIKHIDSFDGRLHLNINLNFNGRQFRYHYESYKVNGQWVVRRIEVREK | 1.89
27 | TDEEELAERLARIMIHLFLTGNEEIMSKLLDPDVRSWVNGQEFHGREEEAKVVRKMIEEWRFHDMHIHDVHVINGRLHVDSRVDNRVGDKTIDIRTELRFDVVNGRLKILEWHFT | 0.341
28 | TDEEELLHRILDEIEKALLTGDEDIIHRLFDPHVRFHVNGRHIVGRHEWSRWVNDHRKRFKNIQIRMRVEEKDVIDGRMHSRTKLHIIFNGVRYEITQEINIDVIDGRLKNVIVHDE | 0.725
29 | TDEEEMLRNFWHELIHALHTGDEELFEELADPDTRWYFENRVVIGRETVRNMIDELRIKEVRVERMRIQGDKFHAKLTQRGQINGREVNTETNLHVDIYNGRLKSVELRVK | 0.888
30 | TDEEKETEEHRKHFEHYERTGDWRELERLFDPNARLIIGDKILHGRELVTRWMFEFVKEMRINHIELHTMEIQGEKIHLDITVHVKFNGQERDIRVTEIHKKFDGRWTIEQIHFN | 1.46
31 | TDEEKSVEELLEKIEHANDTGDFELHKRLADPHVRVLVNGVELHGRHVLMEWLRELFERFKNVTFRLNLREVEFQGEWVFLRIELTVHVNGRTHHHDSIYIIHKVDGRWHITEVRFH | 1.34
32 | TDEKRDLDDWLHLLLHAIRTGDFRIEEKLADPNARLEFNGKEFIGMHHILNFLIEWRLHHMDIKHIEKQGDYLHIDSRLDVDFDGQRTILETHLVSLKINGRWILHSMSIG | 1.28
33 | TDERDRYKHFLHLFRHLIKTGDEDVLANNADPHVKFHIHIGDKEREHHGMESMVKIFKEWRIHHLHIESFDVQGDKLIALVHVDGIINGRHHSTTVNIILTFVNGREKEVNIHLT | 1.74
34 | TDKEEETKENAEKLTKHILTGNWEEFFNLADPNVRMHIQQGDKRINRHGREDAYHEYKDLERNLGIDHMHIKDIRVQGDWVHIHLEYRYGDKRFEVEIVLLIVDGRLTEVNVTIR | 1.09
35 | TDLEELFDYAIDLLRSLLLTGDEHMSVRLADPNTKLEVNGRYIHGREKFREWFRWFLEHLRFDHLHIHSVETQGDYAFMDSRVHLRYGDKVIEFITHQIVLKFDGRWYLHSMEIR | 0.587
36 | TDLKEYVERMLELLRKAIETGDETTLTKLVDPHVRLEVNGREFHGWKFWHMIVREIRMRDLELHHVEIQGDKMEVDGTLHLEINGKDDYRKVRLIAEKFDGRWVFTSVHFE | 1.72
